Data as given in patent US20090068679A1.

Key:
[1] = biological target: recombinant human PlGF (R&D Systems, Catalog No. 264-PG/CF) (human) (UniProt P49763); assay: sandwich ELISA: mAb coated 3 ug/ml; PlGF 25 ng/ml; anti-PlGF-POD
[2] = biological target: recombinant human PlGF (R&D Systems, Catalog No. 264-PG/CF) (human) (UniProt P49763); assay: sandwich ELISA: mAb coated 3 ug/ml; PlGF 50 ng/ml; anti-PlGF-POD
[3] = biological target: recombinant human PlGF (R&D Systems, Catalog No. 264-PG/CF) (human) (UniProt P49763); assay: sandwich ELISA: mAb coated 3 ug/ml; PlGF 0.78 ng/ml; anti-PlGF-POD
[4] = biological target: recombinant human PlGF (R&D Systems, Catalog No. 264-PG/CF) (human) (UniProt P49763); assay: sandwich ELISA: mAb coated 3 ug/ml; PlGF 1.56 ng/ml; anti-PlGF-POD
[5] = biological target: recombinant human PlGF (R&D Systems, Catalog No. 264-PG/CF) (human) (UniProt P49763); assay: sandwich ELISA: mAb coated 3 ug/ml; PlGF 12.5 ng/ml; anti-PlGF-POD
[6] = biological target: recombinant human PlGF (R&D Systems, Catalog No. 264-PG/CF) (human) (UniProt P49763); assay: sandwich ELISA: mAb coated 3 ug/ml; PlGF 3.13 ng/ml; anti-PlGF-POD
[7] = biological target: recombinant human PlGF (R&D Systems, Catalog No. 264-PG/CF) (human) (UniProt P49763); assay: sandwich ELISA: mAb coated 3 ug/ml; PlGF 6.25 ng/ml; anti-PlGF-POD
[8] = biological target: recombinant human PlGF (R&D Systems, Catalog No. 264-PG/CF) (human) (UniProt P49763); assay: sandwich ELISA: mAb 0.1 ug/ml on anti-mouse IgG plate, PlGF 0.1 ug/ml, anti-PlGF-POD
[9] = biological target: recombinant human PlGF (R&D Systems, Catalog No. 264-PG/CF) (human) (UniProt P49763); assay: sandwich ELISA: mAb 1.0 ug/ml on anti-mouse IgG plate, PlGF 0.1 ug/ml, anti-PlGF-POD
[10] = biological target: P/GF/sFlt-1 complex (gP/GF) (human) (UniProt P49763); assay: ELISA: PlGF 1 ug/ml on plate-captured Flt-1/Fc 1 ug/ml; mAb 0.1 ug/ml; anti-mouse IgG-POD
[11] = biological target: P/GF/sFlt-1 complex (gP/GF) (human) (UniProt P49763); assay: ELISA: PlGF 1 ug/ml on plate-captured Flt-1/Fc 1 ug/ml; mAb 1.0 ug/ml; anti-mouse IgG-POD
[12] = biological target: P/GF/sFlt-1 complex (gP/GF) (human) (UniProt P49763); assay: sandwich ELISA: mAb coated 3 ug/ml; PlGF 25 + Flt-1/Fc 400 (ng/ml) pre-incubated; anti-VEGF R1-POD
[13] = biological target: P/GF/sFlt-1 complex (gP/GF) (human) (UniProt P49763); assay: sandwich ELISA: mAb coated 3 ug/ml; PlGF 0.39 + Flt-1/Fc 400 (ng/ml) pre-incubated; anti-VEGF R1-POD
[14] = biological target: P/GF/sFlt-1 complex (gP/GF) (human) (UniProt P49763); assay: sandwich ELISA: mAb coated 3 ug/ml; PlGF 0.78 + Flt-1/Fc 400 (ng/ml) pre-incubated; anti-VEGF R1-POD
[15] = biological target: P/GF/sFlt-1 complex (gP/GF) (human) (UniProt P49763); assay: sandwich ELISA: mAb coated 3 ug/ml; PlGF 1.56 + Flt-1/Fc 400 (ng/ml) pre-incubated; anti-VEGF R1-POD
[16] = biological target: P/GF/sFlt-1 complex (gP/GF) (human) (UniProt P49763); assay: sandwich ELISA: mAb coated 3 ug/ml; PlGF 12.5 + Flt-1/Fc 400 (ng/ml) pre-incubated; anti-VEGF R1-POD
[17] = biological target: P/GF/sFlt-1 complex (gP/GF) (human) (UniProt P49763); assay: sandwich ELISA: mAb coated 3 ug/ml; PlGF 3.13 + Flt-1/Fc 400 (ng/ml) pre-incubated; anti-VEGF R1-POD
[18] = biological target: P/GF/sFlt-1 complex (gP/GF) (human) (UniProt P49763); assay: sandwich ELISA: mAb coated 3 ug/ml; PlGF 6.25 + Flt-1/Fc 400 (ng/ml) pre-incubated; anti-VEGF R1-POD

Extinction at 450 nm [1]: 1.47 | Extinction at 450 nm [2]: 2.5 | Extinction at 450 nm [3]: 0.05 | Extinction at 450 nm [4]: 0.081 | Extinction at 450 nm [5]: 0.885 | Extinction at 450 nm [6]: 0.232 | Extinction at 450 nm [7]: 0.468 | Extinction at 450 nm [8]: 1.9 | Extinction at 450 nm [9]: 2.5 | Extinction at 450 nm [10]: 0.217 | Extinction at 450 nm [11]: 0.691 | Extinction at 450 nm [12]: 2.19 | Extinction at 450 nm [13]: 0.094 | Extinction at 450 nm [14]: 0.146 | Extinction at 450 nm [15]: 0.272 | Extinction at 450 nm [16]: 1.61 | Extinction at 450 nm [17]: 0.529 | Extinction at 450 nm [18]: 0.883
Substance: antibody MAB264 from R&D Systems
